This passage reports OD450 measurement, Mean and Median results from patent publication US20240018262A1 (INNOBATION BIO, published 2024).

The target in assay [1] is T1, GPC3 protein (Acrobiosystems, cat #GP3-H52H4) (UniProt P51654 25-559).
T1 construct: Bought protein coated on the ELISA plate at 100 ng/well; also called Glypican 3; GPC3 antigen
Description: ELISA, GPC3 protein coated at 100 ng/well, 100 µl hybridoma culture, anti-mIgG-HRP. As to the method: First, in order to encode the GPC3 peptide, GPC3 protein (Acrobiosystems, cat #GP3-H52H4) was dispensed into a 96-well plate at an amount of […] and reacted overnight at 4° C. Then, after treatment with 1 X PBST containing 3% BSA, it was blocked for 30 minutes at room temperature.
100 μl of hybridoma cell culture of each clone producing 10E9, 8B2, 7C6, 7B9, 5E11 or 1A8 antibody was treated in each well, reacted at room temperature for 2 hours, and then washed three times with 1 X PBST. The secondary antibody ([…], 1:10,000) was treated and reacted at room temperature for 30 minutes, washed three times with 1 X PBST, and then treated with TMB for color development and reacted at room temperature for 5 minutes. Finally, the reaction was terminated by treatment with a stop solution of 1N H2SO 4, and then the absorbance was measured at 450 nm.
(ELISA stands for enzyme-linked immunosorbent assay.)

For assay [2], the target named is T2, GPC3 expressed on hepatoma cell line HepG2 (human, UniProt P51654 25-554).
T2 construct: whole, on cells; also called GPC3-expressing tumor cells (HepG2); cells expressing GPC3
T2 sequence (P51654 25-554 limits assumed): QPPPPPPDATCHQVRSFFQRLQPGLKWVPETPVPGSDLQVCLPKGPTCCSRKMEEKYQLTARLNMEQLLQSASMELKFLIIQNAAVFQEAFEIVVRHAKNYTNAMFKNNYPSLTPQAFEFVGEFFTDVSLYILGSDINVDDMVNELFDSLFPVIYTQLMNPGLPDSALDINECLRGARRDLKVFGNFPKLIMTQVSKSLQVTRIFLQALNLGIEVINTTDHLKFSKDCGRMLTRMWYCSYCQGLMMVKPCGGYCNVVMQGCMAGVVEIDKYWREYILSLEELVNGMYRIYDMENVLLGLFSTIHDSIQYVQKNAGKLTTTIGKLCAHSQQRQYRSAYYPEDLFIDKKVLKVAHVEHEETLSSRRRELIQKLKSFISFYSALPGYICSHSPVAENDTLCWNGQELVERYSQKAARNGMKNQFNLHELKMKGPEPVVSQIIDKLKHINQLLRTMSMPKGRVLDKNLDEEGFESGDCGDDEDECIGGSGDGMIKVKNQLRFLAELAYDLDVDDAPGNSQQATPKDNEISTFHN
Description: flow cytometry on HepG2 cells, 1 µg antibody, PE anti-mouse IgG secondary; mean fluorescence. As to the method: (§1) First, hepatoma cell line HepG2 expressing GPC3 was reacted with 1 μg of each of 10E9, 8B2, 7C6, 7B9, 5E11, and 1A8 antibodies for 30 minutes, and then, after staining the surface with a secondary antibody, it was measured by flow cytometry.
(§2) GPC3 antibody (Sino biology Glypican3 APC cat #100393-R024-A, 10 u.1) was used as a positive control, and PE-conjugated anti-mouse IgG antibody (PE-conjugated goat anti-mouse IgG; Biolegend Inc., cat #405307, USA, 5 μl) was used as a secondary antibody.
In general terms: In flow cytometry, cells or beads pass a laser one at a time.

Assay [3] concerns the target T2, GPC3 expressed on hepatoma cell line …. Description: flow cytometry on HepG2 cells, 1 µg antibody, PE anti-mouse IgG secondary; median fluorescence. As to the method: as §1, §2

T1 sequence (P51654 25-559 limits assumed): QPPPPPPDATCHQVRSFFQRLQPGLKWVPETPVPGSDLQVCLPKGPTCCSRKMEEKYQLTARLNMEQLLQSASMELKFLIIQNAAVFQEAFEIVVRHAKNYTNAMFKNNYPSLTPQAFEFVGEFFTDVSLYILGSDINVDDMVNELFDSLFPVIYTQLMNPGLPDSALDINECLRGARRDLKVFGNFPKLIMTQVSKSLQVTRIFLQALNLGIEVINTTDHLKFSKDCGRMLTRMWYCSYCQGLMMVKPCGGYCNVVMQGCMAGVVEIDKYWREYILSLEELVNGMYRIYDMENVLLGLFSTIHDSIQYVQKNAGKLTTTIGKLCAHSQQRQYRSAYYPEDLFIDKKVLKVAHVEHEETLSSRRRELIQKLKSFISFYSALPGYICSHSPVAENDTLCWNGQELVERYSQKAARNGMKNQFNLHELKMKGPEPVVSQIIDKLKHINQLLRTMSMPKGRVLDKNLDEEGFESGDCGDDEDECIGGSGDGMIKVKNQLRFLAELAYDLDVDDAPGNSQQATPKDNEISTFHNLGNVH

B1: 7C6 antibody (antibody, V domains shown)
VH: QVQLQQPGAELVKPGASVKLSCKASGYTFTTYYMYWVKQRPGQGLEWIGEINPSNGGTNFNEKFKSKATLTVDKSSSTAYMQLSSLTSEDSAVYYCTTFAYWGQGTLVTVSA
VL: DIVMTQSPSSLSASLGGKVTITCKASQDINKYIVWYQHKPGKGPRLLIHYTSILQPGIPSRFSGSGSGRDYSFSISNLEPEDIATYYCLQYDNLWTFGGGTKLEIK
notes: Mouse hybridoma monoclonal antibody, detected with anti-mouse IgG
Molecule B1 returned an OD450 measurement in assay [1] of 2.88 OD450. This molecule also registered a Mean in assay [2] of 81400. In addition, the Median in assay [3] came to 61800.

B2: 1A8 antibody (antibody, V domains shown)
VH: QVQLQQPGSELVRPGASVKLSCKASGYTFTSYWMHWVKQRHGQGLEWIGNIYPGSGSTNYDEKFKSKGTLTVDTSSRTAYMHLSSLTSEDSAVYYCTRGHYDYAMDYWGQGTSVTVSS
VL: DIVMTQSPSSLSASLGDTITITCHASQNINVWLSWYQQKPGNIPKLLIYKTSNLHTGVPSRFSGSGSGTGFTLTISSLQPEDIATYYCQQGQSYPWTFGGGTKLEIK
notes: as for B1
Take B2: the OD450 measurement in assay [1] was 2.65 OD450. Further, the Mean in assay [2] is 36600. In assay [3], the Median came out at 29000.

B3: 7B9 antibody (antibody, V domains shown)
VH: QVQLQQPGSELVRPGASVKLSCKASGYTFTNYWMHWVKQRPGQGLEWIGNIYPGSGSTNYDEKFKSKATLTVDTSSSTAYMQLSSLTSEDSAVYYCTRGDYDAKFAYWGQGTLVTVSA
VL: DIVMTQSPAIMSASPGEKVTMTCRASSSVSSSYLHWYQQKSGASPKLWIYSTSKLASGVPARFSGSGSGTSYSLTISSVEAEDAATYYCQQYSGYPLITFGAGTKVELK
notes: as for B1
Turning to B3, the OD450 measurement in assay [1] amounted to 2.54 OD450. This molecule also showed a Mean in assay [2] of 27300. For the same molecule, in assay [3], the Median is 22000.

B4: 10E9 antibody (antibody, V domains shown)
VH: EVQLEESGTVLARPGASVKMSCKASGYTFTSYWMHWIKQRPGQGLEWIGAIYPGNSDTSYNQKFKGKAKLTAVTSTSTAYMELSSLTNEDSAVYYCTRGEYDYVLAYWGQGTLVTVSA
VL: DIVMTQSPATLSVTPGDSVSLSCRASQSISNNLHWYQQKSHESPRLLIKFASQSISGIPSRFSGSGSGTDFTLSINSVETEDFGMYFCQQSNSWPHMYTFGGGTKLEIK
notes: Mouse hybridoma monoclonal antibody, detected with anti-mouse IgG; Used as hybridoma culture supernatant in the ELISA
In assay [1], B4 registered an OD450 measurement of 2.32 OD450. For the same molecule, in assay [2], the Mean is 33000. Besides, the Median in assay [3] was found to be 25200.

B5: 5E11 antibody (antibody, V domains shown)
VH: QVQLKQSGAELMKPGASVKISCKATGYTFSRYWIEWVKQRPGHGLEWIGEILPGSGSTSYNEKFKGKATFTADTSSNTAYMQLSSLTSEDSAVYYCARSARATYYFDYWGQGTTLTVSS
VL: DIQMTQTTSSLSASLGDRVTISCWASQDISNYLNWYQQKPDGTVKLLIYYTSTLHSGVPSRFSGSGSGTDYSLTISNLEQEDIATYFCQQGNALPYTFGGGTKLEIK
notes: as for B1
For B5, the OD450 measurement in assay [1] stood at 0.942 OD450. In assay [2], this molecule registered a Mean of 52600. In assay [3], this molecule showed a Median of 40200.

B6: 8B2 antibody (antibody, V domains shown)
VH: QVQLQQPGAELVKPGASVKMSCKASGYTFTSYNMHWVKQTPGQGLEWIGAIYPGNGYTSYNQKFKGKATLTADKSSSTAYMQLSSLTSEDSAVYYCARGGGPFAYWGQGTLVTVSA
VL: DIVMTQSHKFMSTSVGDRVSITCKASQDVGTAVAWYQQKPGQSPKLLIYWPSTRHTGVPDRFTGSGSGTDFTLTISNVQSEDLADYFCQQYSSYPFTFGSGTKLEIK
notes: as for B1
In assay [1], B6 registered an OD450 measurement of 1.01 OD450. The Mean in assay [2] turned out to be 40000. Also, in assay [3], the Median was 31400.
